Test results taken from patent US20250333467A1 (TECTONIC OPERATING, published 2025).
“And” between values parts separate entries of the source, which are not always exact repeats. Equal values may be shown once. Read-outs that look alike come from different tables or passages of the source.

T1: rat RXFP1 (rat, UniProt Q6R6I6 1-758)
T1 sequence (looked up): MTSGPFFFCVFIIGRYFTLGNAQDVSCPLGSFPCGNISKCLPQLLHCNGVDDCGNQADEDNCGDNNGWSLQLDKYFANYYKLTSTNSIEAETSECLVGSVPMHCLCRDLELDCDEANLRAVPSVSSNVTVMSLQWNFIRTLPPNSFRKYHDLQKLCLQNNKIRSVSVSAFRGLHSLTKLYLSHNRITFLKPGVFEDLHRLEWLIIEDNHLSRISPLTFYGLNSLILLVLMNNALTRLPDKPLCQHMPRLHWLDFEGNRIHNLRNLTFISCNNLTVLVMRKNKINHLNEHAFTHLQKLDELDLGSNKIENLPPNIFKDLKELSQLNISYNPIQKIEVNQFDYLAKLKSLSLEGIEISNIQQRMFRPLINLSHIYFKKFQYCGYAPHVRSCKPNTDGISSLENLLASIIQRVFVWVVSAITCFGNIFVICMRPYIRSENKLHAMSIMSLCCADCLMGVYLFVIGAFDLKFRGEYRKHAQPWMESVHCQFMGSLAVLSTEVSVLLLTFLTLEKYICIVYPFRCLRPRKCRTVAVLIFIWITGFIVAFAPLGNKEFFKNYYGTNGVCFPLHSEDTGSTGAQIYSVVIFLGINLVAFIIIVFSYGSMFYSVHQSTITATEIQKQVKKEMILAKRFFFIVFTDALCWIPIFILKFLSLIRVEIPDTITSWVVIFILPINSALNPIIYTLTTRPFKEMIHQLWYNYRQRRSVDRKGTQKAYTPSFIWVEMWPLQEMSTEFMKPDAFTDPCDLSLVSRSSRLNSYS

T2: human RXFP1 (human, UniProt Q9HBX9 1-757)
T2 sequence (looked up): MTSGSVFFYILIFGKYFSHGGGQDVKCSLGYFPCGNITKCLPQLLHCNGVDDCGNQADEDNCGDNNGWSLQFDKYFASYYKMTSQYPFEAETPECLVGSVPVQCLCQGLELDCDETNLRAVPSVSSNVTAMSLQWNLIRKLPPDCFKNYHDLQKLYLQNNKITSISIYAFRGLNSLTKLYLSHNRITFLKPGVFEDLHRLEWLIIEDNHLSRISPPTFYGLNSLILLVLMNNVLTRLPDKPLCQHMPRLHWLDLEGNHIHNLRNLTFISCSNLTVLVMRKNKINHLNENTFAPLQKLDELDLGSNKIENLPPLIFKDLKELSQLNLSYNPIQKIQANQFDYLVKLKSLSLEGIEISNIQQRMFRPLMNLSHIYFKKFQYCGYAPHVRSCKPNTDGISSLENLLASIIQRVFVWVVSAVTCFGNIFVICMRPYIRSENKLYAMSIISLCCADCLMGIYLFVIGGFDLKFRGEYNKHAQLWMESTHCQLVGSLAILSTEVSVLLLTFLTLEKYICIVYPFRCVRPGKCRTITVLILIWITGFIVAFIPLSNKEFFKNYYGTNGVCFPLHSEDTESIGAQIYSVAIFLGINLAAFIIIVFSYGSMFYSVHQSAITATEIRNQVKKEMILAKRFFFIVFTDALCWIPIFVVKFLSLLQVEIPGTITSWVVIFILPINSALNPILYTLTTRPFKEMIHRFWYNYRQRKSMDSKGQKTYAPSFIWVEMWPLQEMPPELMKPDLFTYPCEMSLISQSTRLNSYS

T3: cynomolgus monkey RXFP1 (cynomolgus monkey, UniProt H9ERA2 1-757 (rhesus entry))
T3 sequence: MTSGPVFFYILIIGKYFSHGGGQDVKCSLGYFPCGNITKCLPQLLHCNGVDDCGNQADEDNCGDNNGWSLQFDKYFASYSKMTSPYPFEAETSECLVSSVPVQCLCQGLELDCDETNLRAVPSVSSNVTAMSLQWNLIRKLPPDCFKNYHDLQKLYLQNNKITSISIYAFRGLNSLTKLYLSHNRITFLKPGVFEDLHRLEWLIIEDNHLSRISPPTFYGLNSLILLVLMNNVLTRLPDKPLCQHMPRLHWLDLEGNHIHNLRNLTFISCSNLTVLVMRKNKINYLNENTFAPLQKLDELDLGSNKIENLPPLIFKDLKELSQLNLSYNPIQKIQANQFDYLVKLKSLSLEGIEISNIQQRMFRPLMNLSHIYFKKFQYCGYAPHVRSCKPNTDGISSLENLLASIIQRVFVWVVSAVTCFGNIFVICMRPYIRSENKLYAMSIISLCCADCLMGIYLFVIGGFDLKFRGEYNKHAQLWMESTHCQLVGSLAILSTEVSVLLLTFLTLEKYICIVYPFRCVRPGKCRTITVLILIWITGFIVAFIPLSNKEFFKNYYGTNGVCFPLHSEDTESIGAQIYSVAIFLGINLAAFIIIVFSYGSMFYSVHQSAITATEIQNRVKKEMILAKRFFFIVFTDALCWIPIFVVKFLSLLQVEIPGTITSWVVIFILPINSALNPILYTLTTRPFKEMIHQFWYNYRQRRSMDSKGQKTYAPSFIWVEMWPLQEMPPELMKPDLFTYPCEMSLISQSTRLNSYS


Key:
Assay in all cases: cell-based or functional assay
rat RXFP1 [1] = biological target: T1, rat RXFP1
human RXFP1 [2] = biological target: T2, human RXFP1
human RXFP1 [3] = biological target: T2, human RXFP1; remark: listed apart in the source
rat RXFP1 [4] = biological target: T1, rat RXFP1; remark: listed apart in the source
human RXFP1 [5] = biological target: T2, human RXFP1; remark: listed apart in the source
human RXFP1 [6] = biological target: T2, human RXFP1; remark: listed apart in the source
human RXFP2 [7] = biological target: T4, human RXFP2 (human, UniProt Q8WXD0 1-754)
T4 sequence (Q8WXD0 whole entry): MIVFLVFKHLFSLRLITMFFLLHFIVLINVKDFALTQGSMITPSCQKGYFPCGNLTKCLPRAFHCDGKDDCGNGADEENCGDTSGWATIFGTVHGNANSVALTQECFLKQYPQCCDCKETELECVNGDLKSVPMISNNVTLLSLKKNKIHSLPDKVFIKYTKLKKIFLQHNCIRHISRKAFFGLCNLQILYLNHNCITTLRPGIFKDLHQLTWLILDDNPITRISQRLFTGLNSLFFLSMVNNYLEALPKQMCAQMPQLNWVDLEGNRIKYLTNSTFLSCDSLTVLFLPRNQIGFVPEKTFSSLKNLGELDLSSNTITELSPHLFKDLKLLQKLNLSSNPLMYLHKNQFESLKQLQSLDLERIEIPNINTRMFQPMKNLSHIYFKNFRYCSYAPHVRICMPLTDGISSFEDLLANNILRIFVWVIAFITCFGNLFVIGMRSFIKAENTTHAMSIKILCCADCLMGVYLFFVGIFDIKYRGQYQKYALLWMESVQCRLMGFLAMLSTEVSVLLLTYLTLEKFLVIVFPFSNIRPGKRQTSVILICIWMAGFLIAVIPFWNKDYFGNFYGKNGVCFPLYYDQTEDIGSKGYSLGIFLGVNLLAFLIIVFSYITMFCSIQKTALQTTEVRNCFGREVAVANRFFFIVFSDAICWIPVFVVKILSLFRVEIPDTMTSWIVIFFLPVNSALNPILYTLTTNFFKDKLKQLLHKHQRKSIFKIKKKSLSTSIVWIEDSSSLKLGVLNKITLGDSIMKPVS

human RXFP1 [8] = biological target: T2, human RXFP1; remark: listed apart in the source
human RXFP2 [9] = biological target: T4, human RXFP2; remark: listed apart in the source
rat RXFP1 [10] = biological target: T1, rat RXFP1; remark: listed apart in the source
human RXFP1 [11] = biological target: T2, human RXFP1; remark: listed apart in the source
cynomolgus monkey RXFP1 = biological target: T3, cynomolgus monkey RXFP1
human RXFP1 [12] = biological target: T2, human RXFP1; remark: listed apart in the source

Row | Transient HEK293 rRXFP1 cAMP EC50 (rat RXFP1 [1]) | THP1 (endogenous RXFP1) cAMP EC50 (human RXFP1 [2]) | Transient HEK293 hRXFP1 cAMP EC50 (human RXFP1 [2]) | Potency (cAMP, transient hRXFP1 in HEK293) (human RXFP1 [3]) | EC50 for cAMP generation, recombinant rat RXFP1 assay (average) (rat RXFP1 [4]) | EC50 for cAMP generation, recombinant human RXFP1 assay (average) (human RXFP1 [5]) | Potency (cAMP, transient hRXFP1 in HEK293) (human RXFP1 [6]) | cAMP response EC50, human RXFP2 stable in CHO-K1 (human RXFP2 [7]) | cAMP response EC50, THP-1 (endogenous RXFP1) (human RXFP1 [8]) | cAMP response EC50, human RXFP1 stable in CHO-K1 (human RXFP1 [8]) | fold loss of cAMP potency on human RXFP2 against human RXFP1 (CHO-K1, stable) (human RXFP2 [9]) | cAMP response EC50, rat RXFP1 transient in HEK293 (rat RXFP1 [10]) | cAMP response EC50, human RXFP1 transient in HEK293 (human RXFP1 [11]) | cAMP response EC50, cynomolgus monkey RXFP1 transient in HEK293 (cynomolgus monkey RXFP1) | EC50, cAMP response in RXFP1 transfected HEK293 cells (human RXFP1 [12]) | pEC50, cAMP response in RXFP1 transfected HEK293 cells (human RXFP1 [12]) | Binder
1 | 10.3 nM | 25 nM | 8.7 nM | 5.2 nM | 35 nM | 10 nM | 8.5 nM | > 2 µM and > 1e+06 ng/mL | 10 nM and 900 ng/mL | 40 nM and 2000 ng/mL | ~100 fold | 30 nM and 2000 ng/mL | 10 nM and 800 ng/mL | 10 nM and 800 ng/mL |  |  | SEQ ID NO: 87 (Fc fusion) DKTHTCPPCPAPEAAGGPSVFLFPPKPKDTLMISRTPEVTCVVVDVSHEDPEVKFNWYVDGVEVHNAKTKPREEQYNSTYRVVSVLTVLHQDWLNGKEYKCKVSNKALAAPIEKTISKAKGQPREPQVYTLPPSRDELTKNQVSLTCLVKGFYPSDIAVEWESNGQPENNYKTTPPVLDSDGSFFLYSKLTVDKSRWQQGNVFSCSVLHEALHSHYTQKSLSLSPGKGGSDSWQEEVIKLCGRELVRAQIAICGKSTASDAAGAEAEAGARQLYSALANKCCHVGCTKRSLAQFC
2 | 0.122 nM | 0.2 nM | 0.039 nM | 0.1 nM | 0.1 nM | 0.04 nM |  | 10 nM and 90 ng/mL | 0.07 nM and 0.4 ng/mL | 0.2 nM and 1 ng/mL |  | 0.1 nM and 0.6 ng/mL | 0.05 nM and 0.3 ng/mL | 0.04 nM and 0.2 ng/mL | 0.042 nM | 10.4 | Wild-type human relaxin-2 (ligand) chain 1: DSWMEEVIKLCGRELVRAQIAICGMSTWS chain 2: QLYSALANKCCHVGCTKRSLARFC
